Data from article PMC8136768.

Target: CEBPβ bZIP DNA-binding domain (pXC1599) (Homo sapiens, UniProt P17676 269-344)
Assay: X-ray crystallography

CEBPβ bZIP DNA-binding domain (pXC1599), sequence (P17676 269-344): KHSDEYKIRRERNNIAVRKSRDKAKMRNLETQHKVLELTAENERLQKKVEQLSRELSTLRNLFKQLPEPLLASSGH

B1: Crystal 16-mer, T:G mismatch (dsDNA)
DNA 1: AGGATTGTGCAATATA
DNA 2: ATATTGCGCAATCCTT
binding result: binds
